Experimental data: patent US8273357B2, “Antigen-carbohydrate conjugates” (Massachusetts Institute of Technology, priority 2004, dated 2012)
Entries after “also recorded” stand apart in the source; their conditions may differ.

How the values were obtained:
[1] = test system: OTII (CD4+) T cells in unfractionated splenocytes; test: Antigen presentation assay, unfractionated OTII splenocytes, [3H]thymidine T cell proliferation; format: cell-based, mouse
Method: FIG. 2B is a graph showing that oligosaccharide modification of OVA elicits stronger presentation to OTII T cells than unmodified OVA. Unfractionated OTII splenocytes (3×10^5/well) were incubated with graded doses of OVA or oligosaccharide-modified OVA for eighty-four hours with [^3H]thymidine (1 μCi) added for the last 12 hours. Thereafter [^3H]thymidine incorporation levels were measured and plotted. FIG. 2C is a graph showing that observed enhancements in antigen presentation of (OVA)-3-1 to T cells is carbohydrate dependent. Splenocytes were incubated with antigen as in (B)±(BSA)-3-1 (10 μg mL^−1). In cases where (OVA)-3-1 was added to OVA wells to assess the possibility of direct activation of T cells (see text), (OVA)-3-1 was present at 50 ng mL^−1; incubations were performed for seventy-two hours with [^3H]thymidine (1 μCi) added for the last 12 hours. FIG. 2D is a graph showing that the receptor mediated uptake of (OVA)-3-1 has a different binding profile than that observed for DC-SIGN. Unfractionated splenocytes were incubated with OVA or (OVA)-3-1±mBSA or Lewis^x-BSA (each at 100 μg mL^−1). Incubations were performed for seventy-two hours with [^3H]thymidine (1 μCi) added for the last twelve hours. All values reported are the mean of triplicate measurements.
The ability of these conjugates to enhance antigen uptake by dendritic cells was assessed in comparison to unmodified OVA by incubating graded doses of conjugate and OVA with unfractionated splenocytes (containing T cells, B cells, dendritic cells, macrophages) isolated from OTII (CD4^+) transgenic mice. The ability of dendritic cells to present antigenic peptides derived from targeted proteins was measured as a function of T cell proliferation in response to those presented peptides. T cell proliferation is quantified by [^3H]thymidine incorporation during cellular division.
Pooled inguinal lymph nodes were dissociated in 10% Fetal Bovine Serum RPMI (supplemented with 2 mM L-glutamine) and either mechanically dissociated between two glass slides or, to improve the overall cell yield, incubated in the presence of collagenase (Boehringer) and EDTA for 25 minutes at 37° C./5% CO2 to dissociate DC-T cell clusters. For antigen presentation assays with whole splenocytes, isolated spleens were injected with collagenase/EDTA, gently teased apart and incubated as described above. Splenocytes were cultured in 96-well round-bottom plates at a density of 3×10^5 cells/0.2 mL. In antigen presentation assays utilizing purified dendritic cells and T cells, dendritic cells were isolated from the spleens of C57BL/6 mice following collagenase/EDTA treatment by labeling the dendritic cells with commercially available magnetic microbeads linked to an anti-CD11c^+ antibody (Miltenyi Biotec, Bergisch Gladbach, Germany) (according to the Miltenyi Biotec protocol) and separating labeled Dendritic cells from non-dendritic cells by application of a magnetic field. Similarly, purified […] T cells were obtained from spleens of OTII transgenic mice using magnetic beads Dynal (Oslo, Norway). Purified dendritic cells and T cells were seeded onto 96-well plates round-bottom Plates at a 1:2 DC:T cell ratio unless stated otherwise in the Figures.

IFN-γ = IFN-γ ELISA during in vitro peptide restimulation of T cells from immunized mice; format: in vivo, mouse; conditions: 24 h; lower limit of detection approximately 0.3 ng mL^−1
Method: (§1) FIGS. 8A and 8B are a series of dot plots (FIG. 8A) and a graph (FIG. 8B) showing that the oligosaccharide-mediated targeting of steady state dendritic cells leads to T cell tolerance. […] 2×10^7 OTII splenocytes were adoptively transferred into B6.Ly5.2/Cr recipients and then immunized by subcutaneous injection with PBS, OVA (200 ng), (OVA)-3-1 (200 ng), (OVA)-3-1 (200 ng)+mBSA (50 μg) or OVA peptide (100 μg) in Incomplete Freund's Adjuvant. At 8 days after these initial immunizations, mice received an antigenic rechallenge of OVA peptide (100 μg) in Complete Freund's Adjuvant. On day ten mice were sacrificed and cells were isolated from the draining lymph node, total T cells were purified by negative selection and the number of OTII T cells were counted by FACS as described for FIG. 6. […] Purified T cells from each experimental group were seeded at 3×10^5 cells/well with purified […] dendritic cells (9×10^4/well) and were incubated for twenty-four hours±OVA peptide (100 μg mL^−1) with [^3H]thymidine (1 μCi) added for the last ten hours. […]
(§2) 75-150 μL aliquots of supernatant were sampled from antigen presentation assays at 24, 48, and 72 hours. […] 25 μL of each supernatant were diluted 1:1 with PBS/1% BSA and analyzed in triplicate for IFN-γ, IL-10, and IL-4 using DuoSet ELISA reagents from R&D Systems. […]

IL-4 = IL-4 ELISA during in vitro peptide restimulation of T cells from immunized mice; format: in vivo, mouse; conditions: 24 h; lower limit of detection approximately 0.3 ng mL^−1
Method: as §1, §2

| Molecule | inhibition of uptake and presentation of (OVA)-3-1 to OTII T cells ([1]; OTII splenocytes, mBSA or Lewis^x-BSA each at 100 μg mL^−1) | IFN-γ produced during peptide stimulation in vitro (IFN-γ) | T cell response curve of OVA plus (OVA)-3-1 versus OVA alone (direct activation of T cells) ([1]; 0.05 μg mL^−1 (OVA)-3-1 added to graded doses of OVA) | enhancement of antigen uptake and presentation to T cells (T cell proliferation) compared to unmodified OVA ([1]; OTII splenocytes, graded doses) | IL-4 produced during peptide stimulation in vitro (IL-4) |
| --- | --- | --- | --- | --- | --- |
| mBSA: BSA modified with approximately 25 mannose residues per protein molecule [reference compound] | Neither mBSA nor Lewis^x-BSA significantly impair; also recorded: did not significantly effect presentation |  |  |  |  |
| (OVA)-3-1: ovalbumin modified via SMCC with nonasaccharide 3-1, average of three saccharides per OVA (conjugate) GSIGAASMEFCFDVFKELKVHHANENIFYCPIAIMSALAMVYLGAKDSTRTQINKVVRFDKLPGFGDSIEAQCGTSVNVHSSLRDILNQITKPNDVYSFSLASRLYAEERYPILPEYLQCVKELYRGGLEPINFQTAADQARELINSWVESQTNGIIRNVLQPSSVDSQTAMVLVNAIVFKGLWEKAFKDEDTQAMPFRVTEQESKPVQMMYQIGLFRVASMASEKMKILELPFASGTMSMLVLLPDEVSGLEQLESIINFEKLTEWTSSNVMEERKIKVYLPRMKMEEKYNLTSVLMAMGITDVFSSSANLSGISSAESLKISQAVHAAHAEINEAGREVVGSAEAGVDAASVSEEFRADHPFLFCIKHIATNAVLFFGRCVSP |  | no detectable IFN-γ | identical | greatest enhancement | not detected |
| ovalbumin (protein, UniProt P01012 2-386, looked up, model antigen, unmodified) Ovalbumin: GSIGAASMEFCFDVFKELKVHHANENIFYCPIAIMSALAMVYLGAKDSTRTQINKVVRFDKLPGFGDSIEAQCGTSVNVHSSLRDILNQITKPNDVYSFSLASRLYAEERYPILPEYLQCVKELYRGGLEPINFQTAADQARELINSWVESQTNGIIRNVLQPSSVDSQTAMVLVNAIVFKGLWEKAFKDEDTQAMPFRVTEQESKPVQMMYQIGLFRVASMASEKMKILELPFASGTMSMLVLLPDEVSGLEQLESIINFEKLTEWTSSNVMEERKIKVYLPRMKMEEKYNLTSVLMAMGITDVFSSSANLSGISSAESLKISQAVHAAHAEINEAGREVVGSAEAGVDAASVSEEFRADHPFLFCIKHIATNAVLFFGRCVSP |  | produced IFN-γ |  |  | no IL-4 |
